Measured values: IntAct's records for PubMed 17170703

B1: Androgen receptor (Homo sapiens), P10275 (parent)
chain: MEVQLGLGRVYPRPPSKTYRGAFQNLFQSVREVIQNPGPRHPEAASAAPPGASLLLLQQQQQQQQQQQQQQQQQQQQQQQETSPRQQQQQQGEDGSPQAHRRGPTGYLVLDEEQQPSQPQSALECHPERGCVPEPGAAVAASKGLPQQLPAPPDEDDSAAPSTLSLLGPTFPGLSSCSADLKDILSEASTMQLLQQQQQEAVSEGSSSGRAREASGAPTSSKDNYLGGTSTISDNAKELCKAVSVSMGLGVEALEHLSPGEQLRGDCMYAPLLGVPPAVRPTPCAPLAECKGSLLDDSAGKSTEDTAEYSPFKGGYTKGLEGESLGCSGSAAAGSSGTLELPSTLSLYKSGALDEAAAYQSRDYYNFPLALAGPPPPPPPPHPHARIKLENPLDYGSAWAAAAAQCRYGDLASLHGAGAAGPGSGSPSAAASSSWHTLFTAEEGQLYGPCGGGGGGGGGGGGGGGGGGGGGGGEAGAVAPYGYTRPPQGLAGQESDFTAPDVWYPGGMVSRVPYPSPTCVKSEMGPWMDSYSGPYGDMRLETARDHVLPIDYYFPPQKTCLICGDEASGCHYGALTCGSCKVFFKRAAEGKQKYLCASRNDCTIDKFRRKNCPSCRLRKCYEAGMTLGARKLKKLGNLKLQEEGEASSTTSPTEETTQKLTVSHIEGYECQPIFLNVLEAIEPGVVCAGHDNNQPDSFAALLSSLNELGERQLVHVVKWAKALPGFRNLHVDDQMAVIQYSWMGLMVFAMGWRSFTNVNSRMLYFAPDLVFNEYRMHKSRMYSQCVRMRHLSQEFGWLQITPQEFLCMKALLLFSIIPVDGLKNQKFFDELRMNYIKELDRIIACKRKNPTSCSRRFYQLTKLLDSVQPIARELHQFTFDLLIKSHMVSVDFPEMMAEIISVQVPKILSGKVKPIYFHTQ
B2: Caspase-8 (Homo sapiens), Q14790 (parent)
chain: MDFSRNLYDIGEQLDSEDLASLKFLSLDYIPQRKQEPIKDALMLFQRLQEKRMLEESNLSFLKELLFRINRLDLLITYLNTRKEEMERELQTPGRAQISAYRVMLYQISEEVSRSELRSFKFLLQEEISKCKLDDDMNLLDIFIEMEKRVILGEGKLDILKRVCAQINKSLLKIINDYEEFSKERSSSLEGSPDEFSNGEELCGVMTISDSPREQDSESQTLDKVYQMKSKPRGYCLIINNHNFAKAREKVPKLHSIRDRNGTHLDAGALTTTFEELHFEIKPHDDCTVEQIYEILKIYQLMDHSNMDCFICCILSHGDKGIIYGTDGQEAPIYELTSQFTGLKCPSLAGKPKVFFIQACQGDNYQKGIPVETDSEEQPYLEMDLSSPQTRYIPDEADFLLGMATVNNCVSYRNPAEGTWYIQSLCQSLRERCPRGDDILTILTEVNYEVSNKDDKKNMGKQMPQPTFTLRKKLVFPSD

Variants of: B1
Conditions: with casp8_human CASP8, Q14790

| Variant | effect of a mutation on the interaction |
| --- | --- |
| L26A;F27A | disrupting interaction |

Variants of: B2
Conditions: with andr_human AR

| Variant | effect of a mutation on the interaction |
| --- | --- |
| MDFSRNLYDIGEQLDSEDLASLKFLSLDYIPQRKQEPIKDALMLFQRLQEKRMLEESNLSFLKELLFRINRLDLLITYLNTRKEEMERELQTPGRAQISAYRVMLYQISEEVSRSELRSFKFLLQEEISKCKLDDDMNLLDIFIEMEKRVILGEGKLDILKRVCAQINKSLLKAANDYEEFSKERSSSLEGSPDEFSNGEELCGVMTISDSPREQDSESQTLDKVYQMKSKPRGYCLIINNHNFAKAREKVPKLHSIRDRNGTHLDAGALTTTFEELHFEIKPHDDCTVEQIYEILKIYQLMDHSNMDCFICCILSHGDKGIIYGTDGQEAPIYELTSQFTGLKCPSLAGKPKVFFIQACQGDNYQKGIPVETDSEEQPYLEMDLSSPQTRYIPDEADFLLGMATVNNCVSYRNPAEGTWYIQSLCQSLRERCPRGDDILTILTEVNYEVSNKDDKKNMGKQMPQPTFTLRKKLVFPSD [I174A;I175A] | disrupting interaction strength |

Variants of: B2
Conditions: with andr_human AR, P10275

| Variant | effect of a mutation on the interaction |
| --- | --- |
| MDFSRNLYDIGEQLDSEDLASLKFLSLDYIPQRKQEPIKDALMLAQRLQEKRMLEESNLSFLKELLFRINRLDLLITYLNTRKEEMERELQTPGRAQISAYRVMLYQISEEVSRSELRSFKFLLQEEISKCKLDDDMNLLDIFIEMEKRVILGEGKLDILKRVCAQINKSLLKIINDYEEFSKERSSSLEGSPDEFSNGEELCGVMTISDSPREQDSESQTLDKVYQMKSKPRGYCLIINNHNFAKAREKVPKLHSIRDRNGTHLDAGALTTTFEELHFEIKPHDDCTVEQIYEILKIYQLMDHSNMDCFICCILSHGDKGIIYGTDGQEAPIYELTSQFTGLKCPSLAGKPKVFFIQACQGDNYQKGIPVETDSEEQPYLEMDLSSPQTRYIPDEADFLLGMATVNNCVSYRNPAEGTWYIQSLCQSLRERCPRGDDILTILTEVNYEVSNKDDKKNMGKQMPQPTFTLRKKLVFPSD [F45A] | disrupting interaction strength |
